“And” between values parts separate entries of the source, which are not always exact repeats. Equal values may be shown once. Read-outs that look alike come from different tables or passages of the source.
Tests used:
[1] = biological target: HA peptide-stimulated PBMC (antigen-specific CD4+ T cells); assay: flow cytometry, 4 °C; HA306-318 stim
control (Fig. 48) [2] = assay: flow cytometry, RT, 3.5 µg/ml; control
[3] = biological target: HA peptide-stimulated PBMC (antigen-specific CD4+ T cells); assay: flow cytometry, RT, 7 µg/ml; HA306-318 stim
[4] = biological target: HA peptide-stimulated PBMC (antigen-specific CD4+ T cells); assay: flow cytometry, staining at 4°C 1 h, 28 µg/ml; 0 min, no imidazole
[5] = biological target: HA peptide-stimulated PBMC (antigen-specific CD4+ T cells); assay: flow cytometry, staining at 4°C 1 h, 28 µg/ml; 1 min, no imidazole
control (Fig. 48) [6] = assay: flow cytometry, 4 °C; control
[7] = biological target: HA peptide-stimulated PBMC (antigen-specific CD4+ T cells); assay: flow cytometry, RT, 1.75 µg/ml; HA306-318 stim
[8] = biological target: HA peptide-stimulated PBMC (antigen-specific CD4+ T cells); assay: flow cytometry, staining at 4°C 1 h, 28 µg/ml; 3 min, no imidazole
[9] = biological target: HA peptide-stimulated PBMC (antigen-specific CD4+ T cells); assay: flow cytometry, RT, 3.5 µg/ml; HA306-318 stim
[10] = biological target: HA peptide-stimulated PBMC (antigen-specific CD4+ T cells)
control (Fig. 48) [11] = assay: flow cytometry, RT; control; conventional BSP multimer, concentration not given
control (Fig. 48) [12] = biological target: control (Fig. 48)
[13] = biological target: HA peptide-stimulated PBMC (antigen-specific CD4+ T cells); remark: listed apart in the source
[14] = biological target: HA peptide-stimulated PBMC (antigen-specific CD4+ T cells); assay: flow cytometry, staining at 4°C 1 h, 28 µg/ml; 10 min, no imidazole
[15] = biological target: HA peptide-stimulated PBMC (antigen-specific CD4+ T cells); assay: flow cytometry, 37 °C 1 h, 10 µg/ml; HA306-318 stim
control (Fig. 48) [16] = assay: flow cytometry, RT, 7 µg/ml; control
[17] = biological target: HA peptide-stimulated PBMC (antigen-specific CD4+ T cells); remark: listed apart in the source
control (Fig. 48) [18] = assay: flow cytometry, RT, 1.75 µg/ml; control
[19] = biological target: HA peptide-stimulated PBMC (antigen-specific CD4+ T cells); assay: flow cytometry, staining at 4°C 1 h, 28 µg/ml; 5 min, no imidazole
[20] = biological target: HA peptide-stimulated PBMC (antigen-specific CD4+ T cells); assay: flow cytometry, RT 1 h, 10 µg/ml; HA306-318 stim

In the case of “DR4 2×His DTB-HA306-318 complexes (DTB-streptactin purified monomers) (from UniProt P01903 26-216) (peptide-MHC)”, the % of cells in Q2 (multimer+ CD4+) [1] is reported as 2.52% and 2.3%, the % of cells in Q2 (multimer+ CD4+) (control (Fig. 48) [2]) is reported as 0.222% and the % of cells in Q2 (multimer+ CD4+) [3] is reported as 6.15%. The % of cells in Q2 (multimer+ CD4+) [4] was 4.5%, the % of cells in Q2 (multimer+ CD4+) [5] was 5.3% and the % of cells in Q2 (multimer+ CD4+) (control (Fig. 48) [6]) was 0.355% and 0.561%. For the same substance, the % of cells in Q2 (multimer+ CD4+) [7] was 7.23%, the % of cells in Q2 (multimer+ CD4+) [8] was 4.68% and the % of cells in Q2 (multimer+ CD4+) [9] was 7.94%. For the same substance, the % of cells in Q2 (multimer+ CD4+) [10] was 4.52%, the % of cells in Q2 (multimer+ CD4+) (control (Fig. 48) [11]) was 0.121% and the % of cells in Q2 (multimer+ CD4+) (control (Fig. 48) [12]) was 0.384% and 0.618%. The % of cells in Q2 (multimer+ CD4+) [13] was 24.9% and 9.81%, the % of cells in Q2 (multimer+ CD4+) [14] was 4.35% and the % of cells in Q2 (multimer+ CD4+) [15] was 6.23%. The % of cells in Q2 (multimer+ CD4+) (control (Fig. 48) [16]) was 0.11%, the % of cells in Q2 (multimer+ CD4+) [17] was 12.3% and the % of cells in Q2 (multimer+ CD4+) (control (Fig. 48) [18]) was 0.142%. The % of cells in Q2 (multimer+ CD4+) [19] was 4.59% and the % of cells in Q2 (multimer+ CD4+) [20] was 5.35% and 3.3%.
